Results reported in US11325966.

Key:
Assay in all cases: cell-based or functional assay
[1] = target: HIV-1 Env of pseudovirus 928-28 (HIV-1)
[2] = target: HIV-1 Env of pseudovirus Du156.12 (HIV-1)
[3] = target: HIV-1 Env of pseudovirus Ce0682_E4 (HIV-1)
[4] = target: HIV-1 Env of pseudovirus Ce1086_B2 (HIV-1)
[5] = target: HIV-1 Env of pseudovirus QH0692.42 (HIV-1)
[6] = target: HIV-1 Env of pseudovirus Ce703010054_2A2 (HIV-1)
[7] = target: HIV-1 Env of pseudovirus Ce1172_H1 (HIV-1)
[8] = target: HIV-1 Env of pseudovirus 3365.v2.c2 (HIV-1)
[9] = target: HIV-1 Env of pseudovirus X1632_S2_B10 (HIV-1)
[10] = target: HIV-1 Env of pseudovirus 3016.v5.c45 (HIV-1)
[11] = target: HIV-1 Env of pseudovirus 246F C1G (HIV-1)
[12] = target: HIV-1 Env of pseudovirus ZM197M.PB7 (HIV-1)
[13] = target: HIV-1 Env of pseudovirus P0402_c2_11 (HIV-1)
[14] = target: HIV-1 Env of pseudovirus HIV-16845-2.22 (HIV-1)
[15] = target: HIV-1 Env of pseudovirus 6952.v1.c20 (HIV-1)
[16] = target: HIV-1 Env of pseudovirus 3415.v1.c1 (HIV-1)
[17] = target: HIV-1 Env of pseudovirus HIV-0013095-2.11 (HIV-1)
[18] = target: HIV-1 Env of pseudovirus TRO.11 (HIV-1)
[19] = target: HIV-1 Env of pseudovirus 3817.v2.c59 (HIV-1)
[20] = target: HIV-1 Env of pseudovirus BJOX015000.11.5 (HIV-1)
[21] = target: HIV-1 Env of pseudovirus 191955_A11 (HIV-1)
[22] = target: HIV-1 Env of pseudovirus 191821_E6_1 (HIV-1)
[23] = target: HIV-1 Env of pseudovirus R2184.c04 (HIV-1)
[24] = target: HIV-1 Env of pseudovirus C2101.c01 (HIV-1)
[25] = target: HIV-1 Env of pseudovirus Q23.17 (HIV-1)
[26] = target: HIV-1 Env of pseudovirus ZM109F.PB4 (HIV-1)
[27] = target: HIV-1 Env of pseudovirus RHPA4259.7 (HIV-1)
[28] = target: HIV-1 Env of pseudovirus CNE30 (HIV-1)
[29] = target: HIV-1 Env of pseudovirus R3265.c06 (HIV-1)
[30] = target: HIV-1 Env of pseudovirus TRJO4551.58 (HIV-1)
[31] = target: HIV-1 Env of pseudovirus CNE8 (HIV-1)
[32] = target: HIV-1 Env of pseudovirus 231966.c02 (HIV-1)
[33] = target: HIV-1 Env of pseudovirus 263-8 (HIV-1)
[34] = target: HIV-1 Env of pseudovirus 1054_07_TC4_1499 (HIV-1)
[35] = target: HIV-1 Env of pseudovirus X1193_c1 (HIV-1)
[36] = target: HIV-1 Env of pseudovirus 6244_13_B5_4576 (HIV-1)
[37] = target: HIV-1 Env of pseudovirus Ce2010_F5 (HIV-1)
[38] = target: HIV-1 Env of pseudovirus C4118.c09 (HIV-1)
[39] = target: HIV-1 Env of pseudovirus Ce1176_A3 (HIV-1)
[40] = target: HIV-1 Env of pseudovirus ZM249M.PL1 (HIV-1)

PGT121 (antibody)
IC50 in TZM-bl assay [1]: > 10 µg/mL
IC80 in TZM-bl assay [1]: > 10 µg/mL
IC50 in TZM-bl assay [2]: 0.006 µg/mL
IC80 in TZM-bl assay [2]: 0.019 µg/mL
IC50 in TZM-bl assay [3]: > 10 µg/mL
IC80 in TZM-bl assay [3]: > 10 µg/mL
IC50 in TZM-bl assay [4]: 0.003 µg/mL
IC50 in TZM-bl assay [5]: 0.498 µg/mL
IC80 in TZM-bl assay [5]: 8.51 µg/mL
IC50 in TZM-bl assay [6]: > 10 µg/mL
IC80 in TZM-bl assay [6]: > 10 µg/mL
IC50 in TZM-bl assay [7]: 0.007 µg/mL
IC80 in TZM-bl assay [7]: 0.03 µg/mL
IC50 in TZM-bl assay [8]: 0.243 µg/mL
IC80 in TZM-bl assay [8]: 2.13 µg/mL
IC50 in TZM-bl assay [9]: > 10 µg/mL
IC80 in TZM-bl assay [9]: > 10 µg/mL
IC50 in TZM-bl assay [10]: > 10 µg/mL
IC80 in TZM-bl assay [10]: > 10 µg/mL
IC50 in TZM-bl assay [11]: 0.082 µg/mL
IC80 in TZM-bl assay [11]: 0.363 µg/mL
IC50 in TZM-bl assay [12]: > 10 µg/mL
IC80 in TZM-bl assay [12]: > 10 µg/mL
IC50 in TZM-bl assay [13]: 0.007 µg/mL
IC50 in TZM-bl assay [14]: 8.51 µg/mL
IC80 in TZM-bl assay [14]: > 10 µg/mL
IC80 in TZM-bl assay [15]: 0.348 µg/mL
IC50 in TZM-bl assay [16]: > 10 µg/mL
IC80 in TZM-bl assay [16]: > 10 µg/mL
IC50 in TZM-bl assay [17]: > 10 µg/mL
IC80 in TZM-bl assay [17]: > 10 µg/mL
IC80 in TZM-bl assay [18]: 0.037 µg/mL
IC50 in TZM-bl assay [19]: > 10 µg/mL
IC80 in TZM-bl assay [19]: > 10 µg/mL
IC50 in TZM-bl assay [20]: > 10 µg/mL
IC80 in TZM-bl assay [20]: > 10 µg/mL
IC50 in TZM-bl assay [21]: > 10 µg/mL
IC80 in TZM-bl assay [21]: > 10 µg/mL
IC50 in TZM-bl assay [22]: > 10 µg/mL
IC80 in TZM-bl assay [22]: > 10 µg/mL
IC50 in TZM-bl assay [23]: > 10 µg/mL
IC80 in TZM-bl assay [23]: > 10 µg/mL
IC50 in TZM-bl assay [24]: > 10 µg/mL
IC80 in TZM-bl assay [24]: > 10 µg/mL
IC50 in TZM-bl assay [25]: 0.005 µg/mL
IC80 in TZM-bl assay [25]: 0.017 µg/mL
IC50 in TZM-bl assay [26]: 8.92 µg/mL
IC80 in TZM-bl assay [26]: > 10 µg/mL
IC50 in TZM-bl assay [27]: 0.013 µg/mL
IC80 in TZM-bl assay [27]: 0.046 µg/mL
IC50 in TZM-bl assay [28]: 0.088 µg/mL
IC80 in TZM-bl assay [28]: 0.288 µg/mL
IC50 in TZM-bl assay [29]: > 10 µg/mL
IC80 in TZM-bl assay [29]: > 10 µg/mL
IC50 in TZM-bl assay [30]: 0.802 µg/mL
IC80 in TZM-bl assay [30]: > 10 µg/mL
IC50 in TZM-bl assay [31]: > 10 µg/mL
IC80 in TZM-bl assay [31]: > 10 µg/mL
IC50 in TZM-bl assay [32]: > 10 µg/mL
IC80 in TZM-bl assay [32]: > 10 µg/mL
IC50 in TZM-bl assay [33]: 0.647 µg/mL
IC80 in TZM-bl assay [33]: 4.68 µg/mL
IC50 in TZM-bl assay [34]: 0.041 µg/mL
IC80 in TZM-bl assay [34]: 0.299 µg/mL
IC80 in TZM-bl assay [35]: 0.088 µg/mL
IC50 in TZM-bl assay [36]: 0.172 µg/mL
IC80 in TZM-bl assay [36]: 1.47 µg/mL
IC50 in TZM-bl assay [37]: > 10 µg/mL
IC80 in TZM-bl assay [37]: > 10 µg/mL
IC50 in TZM-bl assay [38]: > 10 µg/mL
IC80 in TZM-bl assay [38]: > 10 µg/mL
IC80 in TZM-bl assay [39]: 0.063 µg/mL
IC50 in TZM-bl assay [40]: > 10 µg/mL
IC80 in TZM-bl assay [40]: > 10 µg/mL

BG18 IgG (354BG18) (antibody)
IC50 in TZM-bl assay [1]: 0.761 µg/mL
IC80 in TZM-bl assay [1]: 3.93 µg/mL
IC50 in TZM-bl assay [2]: 0.003 µg/mL
IC80 in TZM-bl assay [2]: 0.01 µg/mL
IC50 in TZM-bl assay [3]: > 30 µg/mL
IC80 in TZM-bl assay [3]: > 30 µg/mL
IC50 in TZM-bl assay [4]: > 30 µg/mL
IC80 in TZM-bl assay [4]: > 30 µg/mL
IC50 in TZM-bl assay [5]: 0.013 µg/mL
IC80 in TZM-bl assay [5]: 0.042 µg/mL
IC50 in TZM-bl assay [6]: > 30 µg/mL
IC80 in TZM-bl assay [6]: > 30 µg/mL
IC50 in TZM-bl assay [7]: 0.002 µg/mL
IC80 in TZM-bl assay [7]: 0.007 µg/mL
IC50 in TZM-bl assay [8]: 0.013 µg/mL
IC80 in TZM-bl assay [8]: 0.037 µg/mL
IC50 in TZM-bl assay [9]: > 30 µg/mL
IC80 in TZM-bl assay [9]: > 30 µg/mL
IC50 in TZM-bl assay [10]: > 30 µg/mL
IC80 in TZM-bl assay [10]: > 30 µg/mL
IC50 in TZM-bl assay [11]: 0.034 µg/mL
IC80 in TZM-bl assay [11]: 0.257 µg/mL
IC50 in TZM-bl assay [12]: > 30 µg/mL
IC80 in TZM-bl assay [12]: > 30 µg/mL
IC50 in TZM-bl assay [13]: 0.005 µg/mL
IC80 in TZM-bl assay [13]: 0.029 µg/mL
IC50 in TZM-bl assay [14]: 0.019 µg/mL
IC80 in TZM-bl assay [14]: 0.09 µg/mL
IC50 in TZM-bl assay [15]: 0.005 µg/mL
IC80 in TZM-bl assay [15]: 0.011 µg/mL
IC50 in TZM-bl assay [16]: 0.023 µg/mL
IC80 in TZM-bl assay [16]: 0.087 µg/mL
IC50 in TZM-bl assay [17]: 10.5 µg/mL
IC80 in TZM-bl assay [17]: 30 µg/mL
IC80 in TZM-bl assay [18]: 0.002 µg/mL
IC50 in TZM-bl assay [19]: 0.219 µg/mL
IC80 in TZM-bl assay [19]: 1.06 µg/mL
IC50 in TZM-bl assay [20]: > 30 µg/mL
IC80 in TZM-bl assay [20]: > 30 µg/mL
IC50 in TZM-bl assay [21]: > 30 µg/mL
IC80 in TZM-bl assay [21]: > 30 µg/mL
IC50 in TZM-bl assay [22]: 14.1 µg/mL
IC80 in TZM-bl assay [22]: > 30 µg/mL
IC50 in TZM-bl assay [23]: > 30 µg/mL
IC80 in TZM-bl assay [23]: > 30 µg/mL
IC50 in TZM-bl assay [24]: > 30 µg/mL
IC80 in TZM-bl assay [24]: > 30 µg/mL
IC50 in TZM-bl assay [25]: 0.006 µg/mL
IC80 in TZM-bl assay [25]: 0.02 µg/mL
IC50 in TZM-bl assay [26]: > 30 µg/mL
IC80 in TZM-bl assay [26]: > 30 µg/mL
IC50 in TZM-bl assay [27]: 1.44 µg/mL
IC80 in TZM-bl assay [27]: > 30 µg/mL
IC50 in TZM-bl assay [28]: 0.019 µg/mL
IC80 in TZM-bl assay [28]: 0.059 µg/mL
IC50 in TZM-bl assay [29]: > 30 µg/mL
IC80 in TZM-bl assay [29]: > 30 µg/mL
IC50 in TZM-bl assay [30]: 3.34 µg/mL
IC80 in TZM-bl assay [30]: 26.9 µg/mL
IC50 in TZM-bl assay [31]: > 30 µg/mL
IC80 in TZM-bl assay [31]: > 30 µg/mL
IC50 in TZM-bl assay [32]: > 30 µg/mL
IC80 in TZM-bl assay [32]: > 30 µg/mL
IC50 in TZM-bl assay [33]: 1.38 µg/mL
IC80 in TZM-bl assay [33]: 7.55 µg/mL
IC50 in TZM-bl assay [34]: 0.005 µg/mL
IC80 in TZM-bl assay [34]: 0.022 µg/mL
IC50 in TZM-bl assay [35]: 0.005 µg/mL
IC80 in TZM-bl assay [35]: 0.022 µg/mL
IC50 in TZM-bl assay [36]: 0.011 µg/mL
IC80 in TZM-bl assay [36]: 0.049 µg/mL
IC50 in TZM-bl assay [37]: > 30 µg/mL
IC80 in TZM-bl assay [37]: > 30 µg/mL
IC50 in TZM-bl assay [38]: > 30 µg/mL
IC80 in TZM-bl assay [38]: > 30 µg/mL
IC50 in TZM-bl assay [39]: 0.004 µg/mL
IC80 in TZM-bl assay [39]: 0.012 µg/mL
IC50 in TZM-bl assay [40]: > 30 µg/mL
IC80 in TZM-bl assay [40]: > 30 µg/mL
